Consider two substances from US20120171195A1.

Assay [1] concerns the target HLA-Cw*1601 (human) (UniProt P10321). In words: Luminex beads; MAb 1/800; competitor rHLA-E.
Assay [2] deals with HLA-B*3701 (human). Description: Luminex beads; MAb 1/800; competitor rHLA-E.
Assay [3] concerns the target HLA-Cw*1802 (human) (UniProt P10321). In words: Luminex beads; MAb 1/800; competitor rHLA-E.
Assay [4] addresses HLA-B*5101 (human). Description: Luminex beads; MAb 1/800; competitor rHLA-E.
Assay [5] addresses HLA-Cw*1402 (human) (UniProt P10321). In words: Luminex beads; MAb 1/800; competitor rHLA-E.
In assay [6] the target is HLA-Cw*0501 (human). Description: Luminex beads; MAb 1/800; competitor rHLA-E.
Assay [7] concerns the target HLA-B*1401 (human) (UniProt P01889). Description: Luminex beads; MAb 1/100; PBS only.
Assay [8] has as its target HLA-Cw*0602 (human) (UniProt P10321). In words: Luminex beads; MAb 1/100; PBS only.
The target of assay [9] is HLA-B*5801 (human). In words: Luminex beads; MAb 1/100; PBS only.
In assay [10] the target is HLA-B*4403 (human). In words: Luminex beads; MAb 1/100; PBS only.
Assay [11] deals with HLA-B*5101 (human). Description: Luminex beads; MAb 1/100; PBS only.
Assay [12] has as its target HLA-B*1511 (human) (UniProt P01889). Description: Luminex beads; MAb 1/100; PBS only.
Assay [13] has as its target HLA-B*4501 (human). Description: Luminex beads; MAb 1/100; PBS only.
Assay [14] concerns the target HLA-Cw*1701 (human). In words: Luminex beads; MAb 1/100; PBS only.
For assay [15], the target named is HLA-Cw*0303 (human). Description: Luminex beads; MAb 1/100; PBS only.
Assay [16] deals with HLA-B*1801 (human). In words: Luminex beads; MAb 1/100; PBS only.
In assay [17] the target is HLA-B*4701 (human). Description: Luminex beads; MAb 1/100; PBS only.
In assay [18] the target is HLA-Cw*0801 (human) (UniProt P10321). In words: Luminex beads; MAb 1/100; PBS only.
For assay [19], the target named is HLA-B*4006 (human) (UniProt P01889). Description: Luminex beads; MAb 1/100; PBS only.
In assay [20] the target is HLA-Cw*1402 (human) (UniProt P10321). In words: Luminex beads; MAb 1/100; PBS only.
Assay [21] addresses HLA-Cw*0501 (human). Description: Luminex beads; MAb 1/100; PBS only.
Assay [22] deals with HLA-Cw*0702 (human) (UniProt P10321). Description: Luminex beads; MAb 1/100; PBS only.
For assay [23], the target named is HLA-Cw*0202 (human). In words: Luminex beads; MAb 1/100; PBS only.
The target of assay [24] is HLA-Cw*1203 (Cw12) (human) (UniProt P10321). Description: Luminex single-antigen beads; rank of MEM-E/02 reactivity among HLA-Ia alleles.
The target of assay [25] is HLA-Cw*1701 (Cw17) (human). The assay is described as above.
The target in assay [26] is HLA-B*1513 (B77) (human). Described as above.
Assay [27] addresses HLA-Cw*1502 (Cw15) (human). The assay is described as above.
Assay [28] addresses HLA-B*1516 (B63) (human). Described as above.
In assay [29] the target is HLA-B*2708 (B27) (human) (UniProt P01889). The description is as above.
Assay [30] addresses HLA-B*0801 (B8) (human) (UniProt P01889). The assay is described as above.
For assay [31], the target named is HLA-B*1801 (B18) (human). The assay is described as above.
Assay [32] deals with HLA-B*5901 (B59) (human). Described as above.
The target in assay [33] is HLA-B*3801 (B38) (human). Described as above.
Assay [34] concerns the target HLA-B*4403 (B44) (human). The assay is described as above.
Assay [35] concerns the target HLA-A*2601 (A26) (human). Described as above.
Assay [36] deals with HLA-A*2901 (A29) (human) (UniProt P04439). Described as above.
Assay [37] deals with HLA-B*5001 (B50) (human). The description is as above.
Assay [38] addresses HLA-Cw*0401 (Cw4) (human). The description is as above.
The target in assay [39] is HLA-B*6701 (B67) (human) (UniProt P01889). Described as above.
Assay [40] deals with HLA-Cw*0801 (Cw8) (human) (UniProt P10321). Described as above.
Assay [41] concerns the target HLA-A*2501 (A25) (human). The description is as above.
Assay [42] concerns the target HLA-B*1401 (B64) (human) (UniProt P01889). The description is as above.
Assay [43] deals with HLA-A*2403 (A24) (human). The description is as above.

As to “murine monoclonal antibody (MAb) MEM-E/02”, the MFI in assay [1] is 87 MFI; in assay [2], 29 MFI; in assay [3], 35 MFI; in [4], 99 MFI; in assay [5], 48 MFI; in assay [6] it was 70 MFI. Besides, the MFI amounted to 7340 MFI in [7]; 4040 MFI in assay [8]; 3990 MFI in [9]; 3680 MFI in assay [10]; 2210 MFI in [11]; 3430 MFI in assay [12]. The MFI was determined as 4770 MFI in assay [13]; 3360 MFI in assay [14]; 3200 MFI in [15]; 3540 MFI in [16]; 3650 MFI in assay [17]; 5890 MFI in assay [18]. The MFI came to 8590 MFI in assay [19]; 3470 MFI in assay [20]; 7180 MFI in [21]; 3080 MFI in assay [22]; 3880 MFI in [23].

Regarding murine monoclonal antibody MAb MEM-E/02, the MEM-E/02 Reactivity Rank is 36 rank in assay [24]; 28 rank in assay [25]; 41 rank in assay [26]; over 65 rank in assay [27]; 43 rank in assay [28]; over 65 rank in assay [29]. Besides, the MEM-E/02 Reactivity Rank in assay [30] is over 65 rank; in assay [31] it was 36 rank; in assay [32] it was 20 rank; in assay [33] it was over 65 rank; in assay [34] it was over 65 rank; in assay [35], 60 rank. In addition, the MEM-E/02 Reactivity Rank in assay [36] was 48 rank; in assay [37], over 65 rank; in assay [38], over 65 rank; in assay [39] it was over 65 rank; in assay [40], 8 rank; in [41] it was over 65 rank. For the same substance, the MEM-E/02 Reactivity Rank amounted to 7 rank in assay [42] and 63 rank in assay [43].
